From the supplement of paper PMC12764529
± gives the half width of the 95% confidence interval.

Assays:
[1] = folding stability dG unfold (combined trypsin and chymotrypsin); higher = more stable
Outline: (§1)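 Sequencing followed digestion of designed mini-proteins with trypsin and chymotrypsin, each at 11 concentrations in threefold dilutions together with a no-protease condition. The mini-proteins were under 80 residues, had no cysteine, sat in a PA-tagged cDNA display construct, and were kept only if AlphaFold2 dimer inter-PAE was above 15. From the counts, Bayesian fitting gave K50, and unfolding free energy was derived against a sequence-predicted unfolded-state K50 and a shared folded-state K50, per protease or combined.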

[2] = folding stability dG unfold from trypsin proteolysis; higher = more stable
Description: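 Folding stability of de novo designed mini-proteins (<80 aa, no Cys; designed by TrROS, TrMRF, ProteinMPNN and the joint model) was measured by cDNA display proteolysis with trypsin and chymotrypsin. Each protease was used at 11 concentrations in a threefold dilution series plus a no-protease condition. K50 was inferred by Bayesian fitting of sequencing counts, and dG unfold was derived against a sequence-predicted unfolded-state K50 (Tsuboyama et al. method). Sequences shown include variable-length N-terminal GS-type padding (SAGGSAGG...) inside a display construct carrying a PA tag. Rows were kept only if the AF2 dimer inter-PAE was >15, to exclude likely homo-oligomers.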

[3] = folding stability dG unfold from chymotrypsin proteolysis; higher = more stable
Outline: as §1

| Sequence | folding stability dG unfold [1] | folding stability dG unfold [2] | folding stability dG unfold [3] |
| --- | --- | --- | --- |
| ADPDVKVEVEFEVLPDGRLRVTAVDPDTGVVVEVEAPVDGAGPVTVRVRVRVFDPETGEVSTFEAEFTLPLS [r1_45_TrMRF] | 17.3 ± 0.711 kJ/mol | 15.5 ± 0.502 kJ/mol | 18.1 ± 0.628 kJ/mol |
| AFTITGIEVTYDPATNTVTVTATVTGPDGSTATVTLTLTLPAPPPPVTTVTRTETRTLPDGTTVTVTETFTS [r1_125_TrROS_Hall] | 14.4 ± 0.544 kJ/mol | 9.23 ± 0.155 kJ/mol | 17.1 ± 0.201 kJ/mol |
| DDNQEYEYENPGGMKMRVEYNPSTGNMKVEMEPVPPVPPIPPIMIPLDLTPEQANRLINELQDLGIPIMVGS [r1_242_TrROS] | 4.87 ± 0.669 kJ/mol | 3.79 ± 0.251 kJ/mol | 5.56 ± 0.36 kJ/mol |
| DTVTIVVEGMSEEEVLEKARAAAEELAKEGKTVEIVVKLSPEALKKAGVEKVEEVEDEETGLLVIKVEVKPS [r1_467_TrROS_Hall] | 2.86 ± 1.17 kJ/mol | 4.36 ± 0.544 kJ/mol | 2.51 ± 0.293 kJ/mol |
| DVVIDIDELKKAIEKAKPGEVLELTVKVKDKATGKEYTVRVTVTVNPDGKTVTVTVVNEETGEVIETITLPS [r1_165_TrROS_Hall] | > 25.1 kJ/mol | 16.5 ± 0.879 kJ/mol | 21.9 ± 0.92 kJ/mol |
| EEWYIIQIKIEYWGPNGKEREIDIMVLIPPEQMTPDQLKQVKEIAREIAENLQENGYNIEINVEIIPLDDMS [r1_221_TrROS] | > 25.1 kJ/mol | 12.9 ± 1.09 kJ/mol | 16.3 ± 0.962 kJ/mol |
| EKKTLTVLIEVPPEKLEEALARALELAKALPPGQKLEIEIVNEDGTVVRVTVTVDENGEIHIDVEVLPRPPS [r1_350_TrROS_Hall] | 9.33 ± 0.669 kJ/mol | 7.37 ± 0.305 kJ/mol | 9.89 ± 0.669 kJ/mol |
| ENYVAIEITMEMPNPDGMEMKFDLKIIKLDPDDGKFAIEMSMEMENPNGKPYRHPMWFVIPADELKEFLEAS [r1_371_TrROS] | 14.8 ± 1.17 kJ/mol | 10.7 ± 0.92 kJ/mol | 17.2 ± 0.502 kJ/mol |
| GEFVSVESVERLPDGTLVVKIKYKPPSPDTPVTVTVSHPDSSVTFTMDPTSSTITVTVPPSVSDVSVTVVGS [r1_428_JUSTAS] | 13.8 ± 0.389 kJ/mol | 10.9 ± 0.418 kJ/mol | 15 ± 0.502 kJ/mol |
| GENVPPKTVTVSAPVDPTTGRVTVNPGNTTVSISLPDGADVTLSFSTSMSEEEQLAFVEKEAAALNAALAAS [r1_25_JUSTAS] | 4.93 ± 0.201 kJ/mol | 6.85 ± 0.113 kJ/mol | 1.85 ± 0.23 kJ/mol |
| GHRIKVNTVHTPSGTFSLTATVRYPDGTTVTYSFNLPSSPNDTFSVSVPESVPLTTVTTSTFQGDTETPTSS [r1_70_JUSTAS] | 6.24 ± 0.502 kJ/mol | 4.29 ± 0.184 kJ/mol | 7.07 ± 0.753 kJ/mol |
| GKYYLVNIVVVNEDNKSLVFPKVFPENDPEKVLEEIKKLLEELGFKAKKLITVFEKLPDGNVLVNAVVEVGS [r1_281_TrMRF] | 23.3 ± 1.26 kJ/mol | 15.8 ± 0.628 kJ/mol | 23.5 ± 1.05 kJ/mol |
| GLEVKVDITVDPVGGGTRIPVTVSVPGRPIAQATADVDPETGVVNLDLGAESEEERKAALEKLKEAGIKLGS [r1_455_JUSTAS] | 5.65 ± 0.347 kJ/mol | 4.59 ± 0.205 kJ/mol | 5.95 ± 0.226 kJ/mol |
| GMPYTVDVVIEEAEDGVIIPIKLSVDGALVAEAVAPVDPVTKKVVIKPGAASKEALDVALEKLKELGIEPGS [r1_455_TrMRF] | 0.679 ± 1.09 kJ/mol | -2.04 ± 1.67 kJ/mol | 2.25 ± 0.711 kJ/mol |
| GMTIVPPSSPVTDSSGNYEEYPDSQLYKDSSTGKPIIAFPMSPEELAAGDPAALARREALAKEYGLPEIEPS [r1_438_JUSTAS] | 0.0583 ± 1.05 kJ/mol | -2.42 ± 1.46 kJ/mol | 0.213 ± 1.55 kJ/mol |
| GMTVTHTAEAGGRPLTITVTRSPDGWEVTVTDPDGTPIFSKTIPSDKNATLTLTDSAGNPLVTVNITLPPES [r1_34_JUSTAS] | 16.4 ± 0.213 kJ/mol | 17.4 ± 0.46 kJ/mol | 15.9 ± 0.192 kJ/mol |
| GPEVLVETFVDPETGRVVVRVYFPEPDRLVLAVGERGGDGVRVLVVEYEADPLEPRFAEFEFPALPEGFDES [r1_404_TrMRF] | 10.2 ± 0.385 kJ/mol | 10.5 ± 0.586 kJ/mol | 10.9 ± 0.226 kJ/mol |
| GSARFEASAFLAELPFPPQRVLVVLVRGEDGRVRLFVFFPDGSVVEFDLETGRVVRVIDLPDAPLPPGLLES [r1_409_TrMRF] | 14.2 ± 0.502 kJ/mol | 12.1 ± 0.297 kJ/mol | 15.2 ± 0.314 kJ/mol |
| GSSMTVEVSESVVPGTGKKILHVTVTFGGSDPEVARAQALAYVEKETGLPVVSVTVTRAPDSWTVNMTVVGS [r1_337_JUSTAS] | 11.7 ± 0.347 kJ/mol | 12 ± 0.356 kJ/mol | 11 ± 0.134 kJ/mol |
| IETGEYDIEIELPAPNGYKVKVKFKFVKVDPENGKVYVEVELEVTLPGGKPIKLPLRLVMPAEEIKKFLESS [r1_371_TrMRF] | 19.4 ± 0.385 kJ/mol | 12.5 ± 0.301 kJ/mol | 20.7 ± 0.222 kJ/mol |
| KIEIKVHPDGTLLIKAPLELIDLLIKLLKEKGYDAKILKIDPENGYVLIPVKPKPPPIPKPTPEELLKALFS [r1_78_TrMRF] | 14 ± 0.837 kJ/mol | 9.58 ± 0.402 kJ/mol | 15.8 ± 0.418 kJ/mol |

| Sequence | folding stability dG unfold [1] | folding stability dG unfold [2] | folding stability dG unfold [3] |
| --- | --- | --- | --- |
| KKEEEIKKLEEAVREALKKKGLEVKIVEVKKNKNGEYTLTIELKDGKKIEITIKKEKMTVEDILKKLKELLS [r1_279_TrROS_Hall] | 17.3 ± 0.753 kJ/mol | 17.3 ± 0.962 kJ/mol | 16.9 ± 0.628 kJ/mol |
| KKKIKKIEIEIKIPVKSIEEAKEEVEKLAKELKEKFPEIKKIKVEIIKYDEKKGYITVKITIEVNGKKIEFS [r1_52_TrROS_Hall] | 6.35 ± 1.17 kJ/mol | 6.53 ± 0.837 kJ/mol | 5.17 ± 0.544 kJ/mol |
| KKKKKKKKKKKKKEKVKVRIRIRLKVKDKETGEWKEIEVEIEIEMSKEEAEEIAKKLAEKYNFEIVEIEIES [r1_488_TrROS_Hall] | 13.7 ± 0.879 kJ/mol | 12.3 ± 0.331 kJ/mol | 14.5 ± 0.795 kJ/mol |
| KKKYLVLLEARPRLYEFDENGKLIREIPLLVPFIGEGNDPEKVKEAAEKLFGEEVKILEVFPLEEVEEGKIS [r1_493_TrMRF] | 10 ± 0.301 kJ/mol | 7.73 ± 0.272 kJ/mol | 11.26 ± 0.0711 kJ/mol |
| KLKFKVKIKNPKTNETVEVEVELNEDGTVTVKVNGKLIAKFKIVAKPKPKVETKKVKDANGNEKTYKKVKFS [r1_496_TrROS_Hall] | 7.99 ± 1.72 kJ/mol | 4.81 ± 0.502 kJ/mol | 10.1 ± 1.13 kJ/mol |
| KPKIKITITFNKETGKITITAVNKDNNVVVKTEFELKDGKLTMKIEVKNKKTNKTYTIEIEIKLLKPGEKLS [r1_404_TrROS_Hall] | 16.2 ± 1.34 kJ/mol | 10.8 ± 0.795 kJ/mol | 18.1 ± 0.393 kJ/mol |
| KRVTIMFNFPPGKPLPLSELAGFARNSGGEVKIQIYNPDDGKWQEITFPGGKIDDVEMFPDGWMVMITVKGS [r1_238_TrROS] | 10.6 ± 0.628 kJ/mol | 8.74 ± 0.255 kJ/mol | 11.9 ± 0.372 kJ/mol |
| SADKIKIPPGFQIFGPNGQPIRPGTEVEVEDIEPHPGGGEFMFEVKIKSPDDGEEHNWPIMIRFPPAGKSAG [r14_258_TrROS] | – | 3.16 ± 0.544 kJ/mol | -1.65 ± 1 kJ/mol |
| SAGGDPAPLEVDIEMDPDNGRIRIEIRAGGSKVIYEYEIPLDGYEFKVKIIVVDGKIVIEIEFEMPDSAGGS [r16_631_TrROS] | – | 17.9 ± 2.3 kJ/mol | 15.9 ± 1.13 kJ/mol |
| SAGGKRKIMIPMDEMEEKFGIPPNQTVEELAKYINPNYKIEVDNVRYEKDENGKERYWVKVEIEPPKDSAGG [r13_723_TrROS] | – | 3.09 ± 1.05 kJ/mol | -0.567 ± 2.55 kJ/mol |
| SAGGSAGGKKKKPPPLVVVKIEITNPNGEKKELTLVFPSLEDAKAAIEALLPPGYTAKVEIKPLSAGGSAGG [r6_289_TrROS_Hall] | – | 13.2 ± 1.46 kJ/mol | 15.4 ± 1.55 kJ/mol |
| SAGGSAGGSAGEEEVEPPPEVVVRVRFFDKDGKEVLEVEMSLDELRALAEAGLVEVELEPSAGGSAGGSAGG [r11_159_TrROS_Hall] | – | 12.4 ± 1.05 kJ/mol | 11 ± 1.38 kJ/mol |
| SAGGSAGGSAGGGKYRLKLRFTFTNAAGGSSELELEVEIEIPPPPLIAPDADGHWYSLTSAGGSAGGSAGGS [r10_330_TrMRF] | – | 16.1 ± 1.13 kJ/mol | 22.2 ± 2.72 kJ/mol |
| SEEIAKKIADELKKAGYEVVKVEVTYDKETKKVTIKIVVKDKKTNEYYKITIKLNEETGEIVEVKIEKLPSA [r9_814_TrROS_Hall] | – | 12.4 ± 1.76 kJ/mol | 17.3 ± 1.72 kJ/mol |
| SMKIKITAKTEEEREKAKKLLEEIAKELNIEIKIEKIEVIPKPKPEKVELSEEEKKKLKELEEEGLIEEESA [r9_472_TrROS_Hall] | < -4.18 kJ/mol | 2.42 ± 0.247 kJ/mol | – |
| SMKKTLTEKIEGVLPEEEAERYLEEYIASRPWAEKVEVKPEIKPIFDEKGNKLVKVKTTITVTISEEKLKSA [r9_1006_JUSTAS] | < -4.18 kJ/mol | -3.25 ± 3.97 kJ/mol | – |
| SNPWQIKFRNPNRPVEIPIQMNPDDGYVGISVRMRKPGKPKTHTITYKVKNIEDLLDHLEDLPPGFEIEPSA [r9_713_TrROS] | -0.322 ± 1.88 kJ/mol | 1.82 ± 1.13 kJ/mol | – |
| SPAVRPLSAEFYDPRYTVEAPVYESEEGEPVLNIRFLVPEYELEIPFPLEDPEAVFESFAEDGVSLTLTDSA [r9_384_TrMRF] | -3.02 ± 0.711 kJ/mol | 0.0841 ± 0.368 kJ/mol | – |
| SPIVTDLPPKEATRVEVEALVEELEAKGEPPREVVVYDPSRGVPLATIPVTSREELLAAVEAGRPFRVLLSA [r9_718_JUSTAS] | < -4.18 kJ/mol | -2.92 ± 1.3 kJ/mol | – |
| SSVITNKGSLTITKTTLPDGTVVITITDPNGGRTTTITIPADSDGEATVTPTGSGNAATSTIPVSSLKLSSA [r9_1071_JUSTAS] | 0.766 ± 0.879 kJ/mol | 2.11 ± 0.402 kJ/mol | – |
| VEFEEIETTFTLAAPGGSLVDVDLKTTKKDPKNGKVYIEGTLTTVDPGGVPRTLPTKRVVSPEELKQLVSES [r1_371_JUSTAS] | -1.33 ± 2.05 kJ/mol | 0.599 ± 0.795 kJ/mol | – |
